Literature values, collected in publication PMC6478124.

Biological target: HDM2 (Homo sapiens) (UniProt Q00987)
Sequence (Q00987 whole entry): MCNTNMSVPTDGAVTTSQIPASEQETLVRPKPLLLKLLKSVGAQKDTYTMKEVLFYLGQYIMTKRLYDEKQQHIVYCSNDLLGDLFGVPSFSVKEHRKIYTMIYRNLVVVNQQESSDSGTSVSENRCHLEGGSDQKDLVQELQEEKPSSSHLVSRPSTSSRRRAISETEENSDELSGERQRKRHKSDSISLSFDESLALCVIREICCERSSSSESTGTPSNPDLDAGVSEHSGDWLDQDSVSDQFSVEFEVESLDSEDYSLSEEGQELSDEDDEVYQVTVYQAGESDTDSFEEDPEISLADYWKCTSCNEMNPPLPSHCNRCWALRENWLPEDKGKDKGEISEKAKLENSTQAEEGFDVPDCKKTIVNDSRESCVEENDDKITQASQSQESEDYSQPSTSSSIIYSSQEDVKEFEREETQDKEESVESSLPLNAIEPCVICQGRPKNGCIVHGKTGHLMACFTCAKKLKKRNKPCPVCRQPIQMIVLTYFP

Kd: 6.76 nM
Substance: stapled p53 transactivation domain peptide transactivation domain α-helix (from UniProt P04637)
